Assay results as given in article PMC9110426, “Cooperative regulation of PBI1 and MAPKs controls WRKY45 transcription factor in rice immunity”.

Biological target: T1, Myc-WRKY45 (Oryza sativa (rice), UniProt Q5W6D6 1-326)
T1 sequence: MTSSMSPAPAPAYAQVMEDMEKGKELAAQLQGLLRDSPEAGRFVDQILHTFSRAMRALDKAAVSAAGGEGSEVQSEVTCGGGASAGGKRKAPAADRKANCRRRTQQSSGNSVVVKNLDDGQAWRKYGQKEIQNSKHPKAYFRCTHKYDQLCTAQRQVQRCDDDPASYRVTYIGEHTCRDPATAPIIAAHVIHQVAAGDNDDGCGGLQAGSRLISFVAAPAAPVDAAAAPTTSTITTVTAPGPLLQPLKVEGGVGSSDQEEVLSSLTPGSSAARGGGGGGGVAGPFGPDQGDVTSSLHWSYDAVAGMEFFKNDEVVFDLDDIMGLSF
Assay: EMSA; 10 uM ZnCl2; poly(dI-dC); suppressed by excess unlabeled probe (40-fold in Methods, 50-fold in Supplementary Fig. 10c); 25 mM HEPES-KOH pH 7.6, 40 mM KCl, 0.1% Nonidet P-40, 10 uM ZnCl2, 1 mg/mL BSA, 10% glycerol, 1 mM DTT, 0.15 ug poly(dI-dC); 25 min at room temperature; 6% PAGE in Tris-borate at 4 C
Settings: protein: ivt; tags: Myc; blunt

B1: DFA promoter W-box probe (dsDNA)
DNA 1: AGTTGGCAAAAGCTAAGTACAAGTCATTGTGTGGTCAATTGATCGACTGATCTGTTGCTC
DNA 2: GAGCAACAGATCAGTCGATCAATTGACCACACAATGACTTGTACTTAGCTTTTGCCAACT
binding result: binds
